From PMC4800440 (Nature Communications, 2016)
Several values for one entry are separate records, joined by “and”; a condition that tells them apart may be missing. Identical values can stand only once.

B1: human oestrogen receptor beta ligand-binding domain ERβ-EF (255–530) (domain or fragment, UniProt Q92731 255-530, looked up)
chain: VRELLLDALSPEQLVLTLLEAEPPHVLISRPSAPFTEASMMMSLTKLADKELVHMISWAKKIPGFVELSLFDQVRLLESCWMEVLMMGLMWRSIDHPGKLIFAPDLVLDRDEGKCVEGILEIFDMLLATTSRFRELKLQHKEYLCVKAMILLNSSMYPLVTATQDADSSRKLAHLLNAVTDALVWVIAKSGISSQQQSMRLANLLMLLSHVRHASNKGMEHLLNMKCKNVVPVYDLLLEMLNAHVLRGCKSSITGSECSPAEDSKSKEGSQNPQSQ
notes: Estradiol (E2) present throughout; Tag removed with TEV protease; the thioredoxin tag was separated from the complex by gel filtration; also called ERβ LBD; Trx-His-tev-ERβ-EF (255–530); source: E. coli BL21(DE3), with 10 μM estradiol; not shown: thioredoxin, N-terminal, cleaved; His, N-terminal, cleaved
B2: TIF2 (623–772), His-tb-TIF2, expressed alone for the complex with ERβ-EF (domain or fragment, human, UniProt Q15596 623-772, looked up)
chain: SERADGQSRLHDSKGQTKLLQLLTTKSDQMEPSPLASSLSDTNKDSTGSLPGSGSTHGTSLKEKHKILHRLLQDSSSPVDLAKLTAEATGKDLSQESSSTAPGSEVTIKQEPVSPKKKENALLRYLLDKDDTKDIGLPEITPKLERLDSK
notes: also called transcriptional intermediary factor 2
B3: GR_LBD triple mutant C638A, W557T and W712S (residue 524–777) (domain or fragment, human, UniProt P04150 524-777, looked up)
chain: TLPQLTPTLVSLLEVIEPEVLYAGYDSSVPDSTTRIMTTLNMLGGRQVIAAVKWAKAIPGFRNLHLDDQMTLLQYSWMFLMAFALGWRSYRQSSANLLCFAPDLIINEQRMTLPAMYDQCKHMLYVSSELHRLQVSYEEYLCMKTLLLLSSVPKDGLKSQELFDEIRMTYIKELGKAIVKREGNSSQNSQRFYQLTKLLDSMHEVVENLLNYCFQTFLDKTMSIEFPEMLAEIITNQIPKYSNGNIKKLLFHQK
notes: Dexamethasone present throughout; Tags removed with thrombin; The bioinformatics methods print the cysteine as Cys 636, the production methods as C638A; also called GRtm-E; GRtm LBD; not shown: NusA, N-terminal, cleaved; His6, N-terminal, cleaved

Experiments:
[1] = molecular target: B2; assay: native MS; conditions: both partners purified
[2] = molecular target: B1; assay: SEC; conditions: partners not purified
[3] = molecular target: T1, TIF2 (623–772), (His)6-thrombin-TIF2, co-expressed with GRtm-E (human, UniProt Q15596 623-772); conditions: both partners purified
T1 construct: Same limits as m2; here the tags were removed by thrombin cleavage; not shown: His6, N-terminal, cleaved
T1 sequence (looked up): B2 chain

## B1
[1]
  stoichiometry N: 2 ERβ-EF per TIF2

## B2
[2]
  binding result: binds

## B3
[3]
  stoichiometry N: 2 GR per TIF2 and 1 GRtm-E per TIF2
